± gives the standard deviation of the averaged measurements.
Test system: Saccharomyces cerevisiae
Experiment: protein stability index of tFT-peptide fusion (C-terminal peptide) (PSI (0-1 scale)); higher = more stable (slower turnover)
Details: genetic background: wild type; temperature: 30 C
Experimental: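 Multiplexed protein stability (MPS) profiling in S. cerevisiae. Random 12-aa peptides (tFT-X12 library) are fused to the C-terminus of a sfGFP-mCherry tandem fluorescent timer, after mCherry and a GGGS linker. Cells are FACS-sorted into 8 mCherry/sfGFP bins and deep-sequenced. The protein stability index (PSI) is the read-weighted bin average, scaled from 0 (unstable) to 1 (stable). Only peptides with >10 reads are reported; cells were grown at 30 °C in SC-His with glucose.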
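Note: PSI is a weighted mean of sequencing reads over stability bins, variants kept only with over 10 reads, mCherry proximal and sfGFP distal, peptide attached via GGGS linker.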

Sequence	protein stability index
AVFWLRFSRISV	0.618 ± 0.0094
AVFYGRWRGVWE	0.859 ± 0.12
AVGARRRLEVGD	0.722 ± 0.016
AVGCLGKSRATL	0.662 ± 0.0088
AVGLGARHRVAW	0.688 ± 0.016
AVGLGPFGGSRG	0.695 ± 0.0095
AVGRSVVCINRA	0.686 ± 0.041
AVGVCGGGWWWA	0.792 ± 0.098
AVLERGLCCGEY	0.738 ± 0.031
AVLGGAGGGWAG	0.687 ± 0.12
AVLKDFDTKHLY	0.613 ± 0.024
AVMGQRQAESPV	0.693 ± 0.067
AVPGLPLWWQPS	0.746 ± 0.028
AVQSEFGVGFSM	0.736 ± 0.04
AVRELIRASGPG	0.642 ± 0.043
AVRVLLISSSGT	0.641 ± 0.031
AVSFGSTLANWA	0.718 ± 0.062
AVSTYGAQAWNH	0.704 ± 0.018
AVVFCSIPCLRV	0.575 ± 0.052
AWDSVNDSDPPR	0.717 ± 0.035
AWEPGGVVAVLL	0.621 ± 0.14
AWGLKRSCRIKL	0.678 ± 0.051
AWNRFVNPRVWS	0.677 ± 0.03
AWRGFVALSFSR	0.695 ± 0.049
AWRGGSRKDVEG	0.7129 ± 0.001
AWRGLAPRFVLT	0.544 ± 0.01

Sequence	protein stability index
AWSALWGAVSPY	0.7073 ± 0.0027
AWSVRVGGSATA	0.695 ± 0.033
AWVCSPSACGLV	0.834 ± 0.089
AYAPPSALPYPF	0.729 ± 0.0075
AYDIIPGKFKKI	0.652 ± 0.05
AYGGEWGDRGWL	0.688 ± 0.076
AYSPLFPPLLSL	0.649 ± 0.045
AYVFLPINKENR	0.6405 ± 0.0053
AYVHGSINPMQP	0.691 ± 0.011
AYVQPASRSPPP	0.735 ± 0.062
CAGLIDLVGDVS	0.654 ± 0.018
CARSFGLFGTAT	0.694 ± 0.075
CASACPPPPPAT	0.726 ± 0.019
CASGPLQPLPRA	0.753 ± 0.084
CAVGPQSSSCPR	0.56 ± 0.03
CAVVSRYQPLSL	0.7092 ± 0.006
CAWRSVRLLIAH	0.506 ± 0.068
CCFHRLRYSRAV	0.647 ± 0.02
CCGGRTWFVCGV	0.699 ± 0.041
CCRANWDFPIPS	0.707 ± 0.027
CCRTMLGSLVRS	0.659 ± 0.012
CCVSLQSNLLFS	0.68 ± 0.026
CDLISPAHLVLG	0.678 ± 0.01
CDRPERRRTHVY	0.655 ± 0.041
CDSRLSGVFKFG	0.6816 ± 0.0026
CDVIGLVRVKRG	0.771 ± 0.047

Sequence	protein stability index
CDWRSMEWRGCW	0.693 ± 0.0072
CFCGGFGVFVIF	0.593 ± 0.014
CFFFFIFSLFGL	0.515 ± 0.02
CFGRSPWLTINV	0.6171 ± 0.0046
CFIPLCPLSFCI	0.609 ± 0.016
CFLERLAFPGLY	0.633 ± 0.011
CFLSFLLFSSSP	0.558 ± 0.025
CFPPSLVPRPTY	0.673 ± 0.054
CFSRKGIRIKRP	0.734 ± 0.0098
CFVERRCFLLYR	0.562 ± 0.029
CFVSSSRFLSSF	0.692 ± 0.065
CGCVWVSYFFDK	0.655 ± 0.069
CGFLFPCSPSSK	0.689 ± 0.068
CGGCPGCDIHMG	0.655 ± 0.082
CGGFGGLYVVVF	0.545 ± 0.014
CGGGGGLWLLEV	0.559 ± 0.015
CGGSLGAPVLVG	0.588 ± 0.042
CGGSWMRGLRDL	0.72 ± 0.043
CGILTWASSSLG	0.688 ± 0.034
CGLCLGGEWLVG	0.701 ± 0.026
CGLRGAGCLARD	0.637 ± 0.019
CGPGGFGGERVG	0.73 ± 0.058
CGRFGRGVDLGN	0.687 ± 0.02
CGRFVGEGGGKV	0.777 ± 0.1
CGRLSNAAEPTC	0.792 ± 0.19
CGRPRGGEPGGA	0.715 ± 0.078

Sequence	protein stability index
CGVWHGFFGLWL	0.657 ± 0.12
CGVYGRVVEWGG	0.706 ± 0.042
CGWGVWGAKSGR	0.6289 ± 0.0049
CIFSMLLPPFSL	0.687 ± 0.0091
CIFWGSGWDTLV	0.728 ± 0.063
CIIIIGRHSIWG	0.672 ± 0.057
CKCKFLGLSATM	0.613 ± 0.013
CKRKGREEEEKE	0.7361 ± 0.0064
CLCITGIPVQGF	0.653 ± 0.064
CLCLCFLDYKAC	0.5731 ± 0.0051
CLCRAAGARRCG	0.694 ± 0.03
CLESKTGYEVMG	0.7065 ± 0.0052
CLFIAGGSDLSH	0.7 ± 0.039
CLFSVENNNILG	0.704 ± 0.0015
CLGLRFDFYGFV	0.702 ± 0.065
CLGLVSNCGLYV	0.674 ± 0.041
CLHTSVYFHLQR	0.669 ± 0.04
CLLLVLCKFGLL	0.556 ± 0.023
CLRRTSLEDRRR	0.704 ± 0.037
CLTSSIFSRSFA	0.632 ± 0.04
CLVSVDYFPPKL	0.75 ± 0.16
CLWRGDEGRVPW	0.7139 ± 0.0026
CMVRGCFNHCGW	0.669 ± 0.024
CNSRVSAVGLII	0.6303 ± 0.0018
CPALSPSPTLAS	0.68 ± 0.15
CPGLCVFFSPDY	0.661 ± 0.044

Sequence	protein stability index
CPGTSRADFSAV	0.681 ± 0.044
CPLPLPPLHESF	0.674 ± 0.031
CPPPPPPPASPH	0.698 ± 0.074
CPPPTPPAPPLP	0.74 ± 0.033
CPPRPCTASIVR	0.632 ± 0.036
CPRRVAVAGETS	0.697 ± 0.044
CPVFYRYCHPPH	0.707 ± 0.047
CRCVRVGSVVLD	0.632 ± 0.016
CREWNKAGWGNV	0.702 ± 0.014
CRGRGFVVGGRR	0.687 ± 0.035
CRISHPPLGGGS	0.652 ± 0.02
CRRCQRNRVLDG	0.673 ± 0.068
CRRHPLTVVPIL	0.619 ± 0.028
CRVSIVPIKRYS	0.578 ± 0.099
CRVVRGGEGLGG	0.652 ± 0.0081
CRWLGELGVWVF	0.637 ± 0.062
CSCSTFWFFFGR	0.724 ± 0.026
CSGEGDQWLGVR	0.7139 ± 0.0028
CSGFPPPPHSSL	0.6812 ± 0.00089
CSGLTLLRFFVW	0.654 ± 0.064
CSGPARERPVRF	0.709 ± 0.062
CSLLFSLNLMPS	0.666 ± 0.063
CSLPPSPAVPPP	0.644 ± 0.022
CSLQCLGWPISS	0.739 ± 0.087
CSNGVPLTVLLM	0.525 ± 0.0057
CSRFPYSHSLSQ	0.716 ± 0.016

Sequence	protein stability index
CSRLDVSEVVGD	0.663 ± 0.074
CSSVGGYGGFEV	0.616 ± 0.013
CSVCMSSSRLFS	0.733 ± 0.014
CTGDLSHVLFGI	0.725 ± 0.016
CTTSCARWVTTW	0.647 ± 0.02
CTVPGLTPKCIY	0.581 ± 0.042
CTYAPSGRNSHF	0.7656 ± 0.0035
CVDAFLVRLVFM	0.568 ± 0.013
CVGLGGPPGGCG	0.603 ± 0.091
CVIVCETYFQCA	0.53 ± 0.0088
CVLRTSQPSCPG	0.627 ± 0.023
CVLSFVRGCLGA	0.587 ± 0.067
CVRPSFMSRSLR	0.719 ± 0.064
CVRRKYIGGGEG	0.673 ± 0.025
CVSTYLTCSITS	0.54 ± 0.022
CWGVGGRTVING	0.671 ± 0.049
CYAVEACWASCA	0.597 ± 0.0087
CYMFFNPSFNRR	0.712 ± 0.017
CYPFSGLWPPPP	0.717 ± 0.018
CYVGALQKCGTR	0.674 ± 0.01
DAELYLPSPTRL	0.666 ± 0.064
DAGRLLIVSVDS	0.662 ± 0.036
DAPEKQDKHINE	0.719 ± 0.088
DCFSASIHYCPS	0.714 ± 0.059
DCLRQTVPEGAM	0.723 ± 0.069

Reference: the supplement of paper PMC10724198
